Laboratory results from patent publication US20260008852A1 (CRYSTAL BIOSCIENCE, published 2026).

B1: 40511p1.2.A8 (scFv, V domains shown)
VH: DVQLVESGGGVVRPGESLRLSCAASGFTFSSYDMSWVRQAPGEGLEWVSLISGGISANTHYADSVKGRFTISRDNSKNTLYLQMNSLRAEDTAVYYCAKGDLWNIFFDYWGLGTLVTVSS
VL: EIVLTQSPATLSVSPGERATFSCRASQNVRSYLAWYQQKPGQAPRLLIFNTVTRATGIPDRFSGSGSGTDFTLTISSLEPEDFAVYYCQQYYDWPPLTFGGGTKVEIK
notes: Tested as scFv-Fc (Expi293 supernatant)
B2: 40579p1.H11 (scFv, V domains shown)
VH: EVQLLESGGGLVQPGGSLRLSCAASGFTFDDYGMSWVRQAPGKGLEWVSAIRSKASSYATYYADSVKGRFTVSRDNSENTLYLQMNSLRAEDTAVYYCAKHRSNYYFMDVWGQGTTVTVSS
VL: EIVLTQSPGTLSLSPGERATLSCRASQSVGSDLAWYQQRPGQAPRLLIYAASSRATDIPDRFSGSGSGTDFTLTISSLQSEDFAVYYCQQYYSWPPLTFGGGTKVEIK
notes: as for B1

What was measured:
[1] = target: T1, His-tagged cynomolgus monkey B7-H3 (cynomolgus monkey); experiment: ELISA, coated His-tagged antigen, scFv-Fc 1 ug/ml
T1 chain: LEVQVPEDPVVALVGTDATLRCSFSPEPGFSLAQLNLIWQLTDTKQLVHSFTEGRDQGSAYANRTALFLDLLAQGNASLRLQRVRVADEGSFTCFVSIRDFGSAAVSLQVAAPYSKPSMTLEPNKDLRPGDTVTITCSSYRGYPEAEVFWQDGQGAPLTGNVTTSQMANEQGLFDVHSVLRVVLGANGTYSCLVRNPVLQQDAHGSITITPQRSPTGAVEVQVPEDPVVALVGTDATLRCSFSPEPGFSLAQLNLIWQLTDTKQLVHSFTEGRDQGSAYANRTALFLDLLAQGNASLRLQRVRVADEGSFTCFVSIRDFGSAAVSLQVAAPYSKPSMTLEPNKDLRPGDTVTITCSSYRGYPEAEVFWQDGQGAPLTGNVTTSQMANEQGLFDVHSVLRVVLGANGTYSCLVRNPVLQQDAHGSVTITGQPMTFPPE

His-tagged human B7-H3 [2] = target: T2, His-tagged human B7-H3 (human, UniProt Q5ZPR3-2 29-245, limits assumed); experiment: ELISA, coated His-tagged antigen, scFv-Fc 1 ug/ml
T2 construct: Bought His-tagged protein coated on the ELISA plate; also called hu B7-H3; CD276
T2 sequence (looked up): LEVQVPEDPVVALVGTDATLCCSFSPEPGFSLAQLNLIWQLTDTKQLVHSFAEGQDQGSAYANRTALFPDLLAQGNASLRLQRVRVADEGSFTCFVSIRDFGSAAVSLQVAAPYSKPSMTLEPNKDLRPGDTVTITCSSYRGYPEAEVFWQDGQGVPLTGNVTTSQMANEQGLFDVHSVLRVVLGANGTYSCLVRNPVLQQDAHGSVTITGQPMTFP

His-tagged mouse B7-H3 [3] = target: T3, His-tagged mouse B7-H3 (mouse, UniProt Q8VE98 29-244, limits assumed); experiment: ELISA, coated His-tagged antigen, scFv-Fc 1 ug/ml
T3 construct: Bought His-tagged protein coated on the ELISA plate; also called mu B7-H3; murine B7-H3
T3 sequence (looked up): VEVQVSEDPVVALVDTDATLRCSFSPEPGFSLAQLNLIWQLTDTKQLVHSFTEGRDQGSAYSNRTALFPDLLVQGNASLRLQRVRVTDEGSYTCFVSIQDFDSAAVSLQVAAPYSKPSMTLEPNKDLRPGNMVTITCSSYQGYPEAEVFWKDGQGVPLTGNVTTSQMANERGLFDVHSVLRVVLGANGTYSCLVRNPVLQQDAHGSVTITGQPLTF

His-tagged mouse B7-H3 [4] = target: T3, His-tagged mouse B7-H3; experiment: ELISA, coated His-tagged antigen
His-tagged human B7-H3 [5] = target: T2, His-tagged human B7-H3; experiment: ELISA OD450 on hu B7-H3 over OD450 on mu B7-H3
[6] = target: T4, B7-H3 on B7-H3-expressing CHO cells (Genescript) (UniProt Q5ZPR3 29-534, limits assumed); experiment: flow cytometry, B7-H3-expressing CHO cells, 10 ug/ml
T4 construct: whole, on cells; also called CHO-K1/B7-H3; MFI B7-H3
T4 sequence (looked up): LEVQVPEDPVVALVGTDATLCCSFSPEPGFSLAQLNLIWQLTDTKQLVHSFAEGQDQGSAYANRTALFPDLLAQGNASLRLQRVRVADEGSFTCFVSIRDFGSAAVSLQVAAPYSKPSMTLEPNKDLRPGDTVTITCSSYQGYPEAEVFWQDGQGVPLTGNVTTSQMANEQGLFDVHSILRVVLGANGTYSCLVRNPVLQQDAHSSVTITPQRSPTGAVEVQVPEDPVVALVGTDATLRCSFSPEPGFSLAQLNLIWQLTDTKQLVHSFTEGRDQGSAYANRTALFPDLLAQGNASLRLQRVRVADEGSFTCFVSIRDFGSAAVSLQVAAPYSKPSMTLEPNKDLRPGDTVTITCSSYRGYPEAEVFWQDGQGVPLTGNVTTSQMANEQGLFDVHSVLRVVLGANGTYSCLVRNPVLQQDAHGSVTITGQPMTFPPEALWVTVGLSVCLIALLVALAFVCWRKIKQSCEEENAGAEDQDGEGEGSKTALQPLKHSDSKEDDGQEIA
Procedure, shortened: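 Antibodies at 10 μg/ml in PBS/1% BSA/0.01% NaN3 incubated 60 min on ice with ~1.5e5 cells; parental CHO cells as counterscreen. After washing, read by flow cytometry; values are mean fluorescent intensities (MFI).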

Binder	ELISA OD450 @ 1 ug/ml [1] [OD450]	ELISA OD450 @ 1 ug/ml (His-tagged human B7-H3 [2]) [OD450]	ELISA OD450 @ 1 ug/ml (His-tagged mouse B7-H3 [3]) [OD450]	binding result (His-tagged mouse B7-H3 [4])	hu:mu ratio (His-tagged human B7-H3 [5])	MFI @ 10 ug/ml [6] [MFI]
B1	2.34	2.11	0.055	no binding (tested: 1 ug/ml)	38.4	25400
B2	0.769	–	0.051	no binding (tested: 1 ug/ml)	–	11600
